Data taken from PMC12522135, “Engineering a Coiled-Coil Protein for DARPin Presentation as a Potent SARS-CoV‑2 Therapeutic” (Biomacromolecules, 2025).

B1: Linear D2 (designed binder)
chain: DLGKKLLQAARAGQLDEVRELLKAGADVNAKDREGKTPLHVAAQEGHLEIVEVLLKAGADVNAKDVWGRTPLHLAAWIGHLEIVEVLLKAGADVNAKDVSGATPLHAAALHGHLEIVEVLLNAGADVNAQDKSGKTPADLAARAGHQDIAEVLQKAAGGGSGGGSGGGSGGGSDLGKKLLQAARAGQLDEVRELLKAGADVNAKDREGKTPLHVAAQEGHLEIVEVLLKAGADVNAKDVWGRTPLHLAAWIGHLEIVEVLLKAGADVNAKDVSGATPLHAAALHGHLEIVEVLLNAGADVNAQDKSGKTPADLAARAGHQDIAEVLQKAAGGGSGGGSGGGSGGGSDLGKKLLQAARAGQLDEVRELLKAGADVNAKDREGKTPLHVAAQEGHLEIVEVLLKAGADVNAKDVWGRTPLHLAAWIGHLEIVEVLLKAGADVNAKDVSGATPLHAAALHGHLEIVEVLLNAGADVNAQDKSGKTPADLAARAGHQDIAEVLQKAA
B2: HEX-D3 (designed binder)
chain: DLGKKLLQAARAGQLDEVRELLKAGADVNAKDQEGITPLHVAAHQGHLEIVEVLLKAGADVNAKDVWGRTPLHLAAWRGHLEIVEVLLKAGADVNAKDHAGATPLHAAALSGHLEIVEVLLKAGADVNAQDKSGKTPADLAARAGHQDIAEVLQKAAGGGSGGGSGGGSGGGSGELKAIAQELKAIAKELKAIAWELKAIAQGAGGGGSGGGSGGGSGGGSDLGKKLLQAARAGQLDEVRELLKAGADVNAKDQEGITPLHVAAHQGHLEIVEVLLKAGADVNAKDVWGRTPLHLAAWRGHLEIVEVLLKAGADVNAKDHAGATPLHAAALSGHLEIVEVLLKAGADVNAQDKSGKTPADLAARAGHQDIAEVLQKAA
B3: HEX-D1 (designed binder)
chain: DLGKKLLQAARAGQLDEVRELLKAGADVNAKDREGITPLHLAAQHGHLEIVEVLLKAGADVNAKDVWGRTPLHLAAWQGHLEIVEVLLKAGADVNAKDLAGATPLHVAALYGHLEIVEVLLKAGADVNAQDKSGKTPADLAARAGHQDIAEVLQKAAGGGSGGGSGGGSGGGSGELKAIAQELKAIAKELKAIAWELKAIAQGAGGGGSGGGSGGGSGGGSDLGKKLLQAARAGQLDEVRELLKAGADVNAKDREGITPLHLAAQHGHLEIVEVLLKAGADVNAKDVWGRTPLHLAAWQGHLEIVEVLLKAGADVNAKDLAGATPLHVAALYGHLEIVEVLLKAGADVNAQDKSGKTPADLAARAGHQDIAEVLQKAA
B4: HEX-D2 (designed binder)
chain: DLGKKLLQAARAGQLDEVRELLKAGADVNAKDREGKTPLHVAAQEGHLEIVEVLLKAGADVNAKDVWGRTPLHLAAWIGHLEIVEVLLKAGADVNAKDVSGATPLHAAALHGHLEIVEVLLNAGADVNAQDKSGKTPADLAARAGHQDIAEVLQKAAGGGSGGGSGGGSGGGSGELKAIAQELKAIAKELKAIAWELKAIAQGAGGGGSGGGSGGGSGGGSDLGKKLLQAARAGQLDEVRELLKAGADVNAKDREGKTPLHVAAQEGHLEIVEVLLKAGADVNAKDVWGRTPLHLAAWIGHLEIVEVLLKAGADVNAKDVSGATPLHAAALHGHLEIVEVLLNAGADVNAQDKSGKTPADLAARAGHQDIAEVLQKAA
B5: Linear D3 (designed binder)
chain: DLGKKLLQAARAGQLDEVRELLKAGADVNAKDQEGITPLHVAAHQGHLEIVEVLLKAGADVNAKDVWGRTPLHLAAWRGHLEIVEVLLKAGADVNAKDHAGATPLHAAALSGHLEIVEVLLKAGADVNAQDKSGKTPADLAARAGHQDIAEVLQKAAGGGSGGGSGGGSGGGSDLGKKLLQAARAGQLDEVRELLKAGADVNAKDQEGITPLHVAAHQGHLEIVEVLLKAGADVNAKDVWGRTPLHLAAWRGHLEIVEVLLKAGADVNAKDHAGATPLHAAALSGHLEIVEVLLKAGADVNAQDKSGKTPADLAARAGHQDIAEVLQKAAGGGSGGGSGGGSGGGSDLGKKLLQAARAGQLDEVRELLKAGADVNAKDQEGITPLHVAAHQGHLEIVEVLLKAGADVNAKDVWGRTPLHLAAWRGHLEIVEVLLKAGADVNAKDHAGATPLHAAALSGHLEIVEVLLKAGADVNAQDKSGKTPADLAARAGHQDIAEVLQKAA
B6: Linear D1 (designed binder)
chain: DLGKKLLQAARAGQLDEVRELLKAGADVNAKDREGITPLHLAAQHGHLEIVEVLLKAGADVNAKDVWGRTPLHLAAWQGHLEIVEVLLKAGADVNAKDLAGATPLHVAALYGHLEIVEVLLKAGADVNAQDKSGKTPADLAARAGHQDIAEVLQKAAGGGSGGGSGGGSGGGSDLGKKLLQAARAGQLDEVRELLKAGADVNAKDREGITPLHLAAQHGHLEIVEVLLKAGADVNAKDVWGRTPLHLAAWQGHLEIVEVLLKAGADVNAKDLAGATPLHVAALYGHLEIVEVLLKAGADVNAQDKSGKTPADLAARAGHQDIAEVLQKAAGGGSGGGSGGGSGGGSDLGKKLLQAARAGQLDEVRELLKAGADVNAKDREGITPLHLAAQHGHLEIVEVLLKAGADVNAKDVWGRTPLHLAAWQGHLEIVEVLLKAGADVNAKDLAGATPLHVAALYGHLEIVEVLLKAGADVNAQDKSGKTPADLAARAGHQDIAEVLQKAA

Biological target: SARS-CoV-2 RBD protein (SARS-CoV-2 (Wuhan-Hu-1), UniProt P0DTC2 319-541)
Assay: BLI
Conditions: both partners purified

| Binder | Kd [pM] |
| --- | --- |
| B1 | < 1 |
| B2 | < 1 |
| B3 | < 1 |
| B4 | < 1 |
| B5 | < 1 |
| B6 | < 1 |
